The RNAGym collection of RNA variant scans (doi:10.7554/elife.80360)

B1: HDV Ribozyme (parent)
chain: GGCCGGCAUGGUCCCAGCCUCCUCGCUGGCGCCGGCUGGGCAACAUUCCGAGGGGACCGUCCCCUCGGUAAUGGCGAAUGGGACCCA

Variants of: B1
Assay: self-cleavage, relative activity (ratio to wild type); higher = more cleavage; co-transcriptional

Variant | self-cleavage
G17C A56U | 0.427
G17A C36A | 0.138
G17C G74U | 0.0554
G17C C22U | 0.0639
C18G C22G | 0.0755
G17A U60A | 0.787
C18A G34U | 0.0489
G17U C41U | 0.253
G17U C41A | 0.104
C18G G25U | 0.0386
C18U A87U | 0.853
C18A U37G | 0.185
C18A U37A | 0.0462
C18A U37C | 0.0361
G17U G54C | 0.536
G17U G54U | 0.546
G17U C30A | 0.831
G17U C30G | 0.486
C18U G59C | 0.651
C18A U23C | 0
C18A G25A | 0.133
C18A G25C | 0.0405
G17U U79C | 0.584
G17U U79A | 0.755

Variant | self-cleavage
G17U U79G | 0.406
G17U G76C | 0.751
C18G G73U | 0.119
C18U U65A | 0.635
C18U U65G | 0.554
C18A C49G | 0.119
C18A C49A | 0.111
G17C C57G | 0.516
C18U G53A | 0.639
C18U G53C | 0.607
C18G U46C | 0
G17U G31C | 0.0361
C18U G54C | 0.606
C18A C86A | 0.106
C18A C86U | 0.0898
C18A G38A | 0.113
G17U U60C | 0.601
C18G G38U | 0.0386
C18G G38C | 0
G17U A51G | 0.34
C18U C41U | 0.49
C18G C26A | 0.175
C18G C26G | 0.0831
G17A C85A | 0.727

Variant | self-cleavage
G17A U46G | 0.229
G17A U46A | 0.308
C18G U65A | 0.138
G17A G28U | 0.122
G17C G25U | 0.101
G17A U79G | 0.388
G17A C44U | 0.231
G17A C44A | 0.306
G17C G50A | 0.148
G17C G50U | 0.332
G17U C48G | 0.482
C18A U27G | 0.115
C18A U27C | 0.135
C19A A83U | 0.138
C19A A83C | 0.0426
C18G U72A | 0
C18G A56C | 0.0755
C18U C49A | 0.623
C18U C49G | 0.723
C18U C48U | 0.639
C18U C48G | 0.683
G17U G34A | 0.13
C18G U60C | 0.0692
C18G U60A | 0

Variant | self-cleavage
G17U G82U | 0.361
G17U G82C | 0.269
G17A U20G | 0.156
G17A U20C | 0.268
C18G U47C | 0.185
G17A U47G | 0.657
G17U G40U | 0.381
G17C C19U | 0.128
G17U G38C | 0.0997
G17C C62U | 0.405
C18G G67A | 0.101
G17A G25U | 0.0277
C18A A42G | 0.102
G17U A56G | 0.609
G17U G29A | 0.0314
C19A A42G | 0.0811
C18U G55C | 0.893
C18G C44G | 0.0723
G17U C22A | 0.0831
G17C G80U | 0.0588
G17C G80A | 0.0252
C18A G40C | 0.162
G17A G39C | 0
C18G C86U | 0.0875

Variant | self-cleavage
G17C U60G | 0.356
C18U G73C | 0.217
G17C A51G | 0.317
G17C A51U | 0.443
G17U G39A | 0.128
C18A A70U | 0.0898
G17C U23C | 0.208
C18A C84U | 0.0997
C18G G28U | 0.0405
C18U C75A | 0.366
C18U G81A | 0.265
C18U G81C | 0.136
C18A A45C | 0.208
G17A C61A | 0.594
C18G G80C | 0.0707
C18U C61G | 0.53
C18U C61A | 0.709
C18G A71G | 0
G17A C86U | 0.885
G17C U46G | 0.0923
G17A U23G | 0.427
G17A C64U | 0.722
G17A C64A | 0.645
G17A C75G | 0.0773

Variant | self-cleavage
G17A U72C | 0.141
G17A U72G | 0.378
C18U A42C | 0.185
G17U A43G | 0.237
G17C C21A | 0.0519
C18U G28C | 0.089
C18U G29A | 1.06
C18U G29U | 0.0639
C18A C62A | 0.102
C18U C86G | 0.704
G17U G59A | 0.465
C18G U23G | 0
C18A U47G | 0
C18G G52C | 0.0554
G17U G28A | 0.188
G17A G59C | 0.66
G17A G59A | 0.635
C18U C58A | 0.612
C18G G82U | 0.219
C18U G80U | 0.0989
C18A A87U | 0.126
C18U G35C | 0.119
C18A G73A | 0.0755
G17C C32U | 0

Variant | self-cleavage
C18U U47G | 0.608
C18G A77C | 0.178
C18G A77G | 0.0755
G17U U27C | 0.308
G17U C84G | 0.439
G17A G73U | 0.188
G17U G50U | 0.609
C19A A56G | 0.256
G17C G29A | 0.0437
G17C G29U | 0
G17A G52C | 0.923
G17C U65G | 0.249
G17C U65A | 0.353
G17U C64G | 0.495
C18G G59C | 0.26
G17C A83C | 0.244
C18A G29U | 0.821
C18A G29C | 0.266
C18G A78C | 0
C18G A78G | 0
G17A U69A | 0.731
G17C C58A | 0.388
C18A C75G | 0.133
G17C C66A | 0.262

Variant | self-cleavage
C18G G55A | 0.145
G17U C57A | 0.689
G17A G67C | 0.659
C18G C66U | 0.166
C18U C24U | 0.141
C18U A51G | 0.623
G17U U72G | 0
G17A G38U | 0.1
C18U U20C | 0.0923
C18G G39A | 0
G17C G35A | 0.147
G17C G35U | 0.0773
G17C C49A | 0.467
G17C C49G | 0.107
C18G U79C | 0.0639
G17A C58A | 0.746
G17U C63U | 0.47
C18A C22A | 0.117
C18A C36G | 0
C18A C36A | 0.0361
C18G U27A | 0.0665
C18A A56G | 0.162
C18U U69A | 0.397
C18U U69C | 0.878

Variant | self-cleavage
G17U U69C | 0.869
C18G A87U | 0.154
C18G A87G | 0.12
C18U A56G | 0.719
C18U A56U | 0.745
C18U A56C | 0.628
C18U G68A | 0.739
C18G C41G | 0.266
C18G A43U | 0.189
G17U U23G | 0.0692
G17C G67A | 0.249
G17C G67U | 0.358
C18A C32A | 0.106
C18U G82U | 0.111
C18U U27C | 0.268
C18U U27A | 0.95
G17C C26A | 0.369
G17C C26U | 0.359
G17A C57G | 0.674
G17C A87U | 0.171
G17C A87C | 0.354
C18G C75A | 0
C18G C75U | 0.0615
G17U G81A | 0.415

Variant | self-cleavage
G17U G81U | 0.381
G17U G81C | 0.197
G17U G55U | 0.415
G17U G55C | 0.453
G17U A70G | 0.674
G17U A71G | 0.323
C18U A43G | 0.17
C18U A43C | 0.295
C18G C57G | 0.133
C18G C57U | 0.237
C18U C33A | 0.0354
C18U C26U | 0.848
C18U C26A | 0.591
C18G A83U | 0.101
C18A G67U | 0.117
C18A G67C | 0.123
C18A C26G | 0.119
C18A C26U | 0.312
C18A C26A | 0.244
G17A U37C | 1.1
G17A U37G | 0.172
G17C A70U | 0.277
C18G C19G | 0
C19A A78U | 0.138

Variant | self-cleavage
C19A A78G | 0.0845
G17U C36U | 0.166
C18U A83G | 0.356
G17C C24A | 0.0519
C18U A71U | 0.724
C18U A71C | 0.259
G17C G28C | 0.125
G17C G28U | 0.0707
G17U C86G | 0.583
G17U U47A | 0.256
C18G C32G | 0.107
C18U C85U | 0.582
G17C C61G | 0.519
G17C G81C | 0.0898
G17C G81A | 0.0978
C18A C48G | 0.102
C18G C63G | 0.199
G17C A45G | 0.119
G17C A45C | 0.0519
C18A C19A | 0.128
C18A C19G | 0.145
C19A A87C | 0.148
C18A U69A | 0.19
C18U A78U | 0.0707

Variant | self-cleavage
C18U A78G | 0.285
C18U C30U | 0.185
C18U G74C | 0.0519
C18U G74U | 0.166
G17U C33A | 0.143
G17U C33G | 0.0831
G17A G35C | 0.156
C18U G39C | 0.0405
C18G C62G | 0
C18A C61A | 0.0615
C18A C61G | 0.172
G17C C86A | 0.365
G17C C86G | 0.131
C18A C66G | 0.0639
C18G G50U | 0.196
C18G G50A | 0.138
G17C A77C | 0.277
G17U C26G | 0.608
G17U C26U | 0.654
C18U C32G | 0.032
G17A G55U | 0.762
G17C G59C | 0.243
G17A G81A | 0.151
G17C G52C | 0.19

Variant | self-cleavage
G17A C49A | 0.727
G17C C41G | 0.0354
C18A C85G | 0.0475
G17A G40C | 0.113
G17A G54C | 0.458
G17C C84U | 0.326
G17C C84G | 0.18
C18A G59C | 0.0639
G17C G73U | 0.0852
G17C G73A | 0.156
G17C G73C | 0.0875
G17U G74A | 0.129
G17C C18A | 0
G17A C66U | 0.607
C18U U46A | 0.291
G17A G80C | 0.345
G17C U20C | 0
C18A G28C | 0.095
C18U C19A | 0.0906
G17A C63A | 0.611
G17A C63G | 0.633
C18U G76C | 0.978
C18A C57U | 0.086
G17C U27C | 0

Variant | self-cleavage
C19A A77G | 0.0302
C18G C33A | 0
G17U C58A | 0.847
C18A G55C | 0.133
C18A G55U | 0.197
C18G G54C | 0.0475
C18G G54A | 0.125
C18A A51C | 0.0755
C18G C64U | 0.147
C18G C64G | 0.156
C18A C21U | 0.089
C18A C21A | 0.125
C18A C33U | 0.0489
G17C C64A | 0.314
G17C C64U | 0.0475
C18A A78U | 0.128
C18A G52A | 0.196
C18A G52U | 0.237
C18G G31A | 0.0811
C18U G50C | 0.705
C18U G50U | 0.639
C18A A77C | 0
